Measured values published in patent CN114651011A (dated 2022).
Changes are numbered by the printed parent chain.

T1: CD43#6 (CD43 with aa 64 to 78 deleted), expressed in HEK293T cells (human, UniProt P16150 20-400)
T1 construct: also called CD43克隆#6; 第五CD43变体; not shown: His tag (and GFP by the name of the vector pLenti-CMV-(insert)-Histag-GFP-2A-Puro)
T1 sequence: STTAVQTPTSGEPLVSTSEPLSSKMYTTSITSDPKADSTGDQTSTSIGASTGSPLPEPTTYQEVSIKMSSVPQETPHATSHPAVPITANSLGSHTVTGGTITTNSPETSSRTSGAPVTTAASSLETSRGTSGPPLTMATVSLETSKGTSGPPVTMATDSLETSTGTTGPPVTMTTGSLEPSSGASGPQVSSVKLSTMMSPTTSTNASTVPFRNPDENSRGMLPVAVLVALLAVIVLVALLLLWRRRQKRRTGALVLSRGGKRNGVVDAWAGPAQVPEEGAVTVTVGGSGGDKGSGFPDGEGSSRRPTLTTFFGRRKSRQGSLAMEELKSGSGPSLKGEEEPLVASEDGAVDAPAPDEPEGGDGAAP

T2: 人CD43 (human CD43, UMG1 epitope), endogenous on human cells, cell lines and tissues (human, UniProt P16150 20-400)
T2 construct: The cells carry the natural protein; also called UMG1表位; UMG1抗原
T2 sequence: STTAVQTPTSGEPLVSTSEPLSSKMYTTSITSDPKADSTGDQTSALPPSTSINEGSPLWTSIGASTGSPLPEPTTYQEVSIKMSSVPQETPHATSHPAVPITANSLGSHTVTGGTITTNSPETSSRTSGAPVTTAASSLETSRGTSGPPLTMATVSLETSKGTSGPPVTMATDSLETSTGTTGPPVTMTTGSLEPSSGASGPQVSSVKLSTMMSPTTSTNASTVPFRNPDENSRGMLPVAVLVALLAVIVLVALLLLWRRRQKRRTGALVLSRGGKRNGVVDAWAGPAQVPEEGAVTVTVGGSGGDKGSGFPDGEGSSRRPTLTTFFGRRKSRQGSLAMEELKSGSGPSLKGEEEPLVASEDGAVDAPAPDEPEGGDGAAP

T3: 野生型肽 PPSTSINEGSPLWTS (aa 66-80 of human CD43), peptide of the epitope substitution scan (human)
T3 construct: also called wild-type peptide; 人CD43的线性表位，用于取代筛选
T3 peptide: PPSTSINEGSPLWTS

T4: 重组人CD43细胞外部分 (aa 20-253), produced in E. coli, not glycosylated (human, UniProt P16150 20-253)
T4 construct: also called 重组人CD43分析物(aa 20-253); CD43的无糖基化细胞外部分
T4 sequence: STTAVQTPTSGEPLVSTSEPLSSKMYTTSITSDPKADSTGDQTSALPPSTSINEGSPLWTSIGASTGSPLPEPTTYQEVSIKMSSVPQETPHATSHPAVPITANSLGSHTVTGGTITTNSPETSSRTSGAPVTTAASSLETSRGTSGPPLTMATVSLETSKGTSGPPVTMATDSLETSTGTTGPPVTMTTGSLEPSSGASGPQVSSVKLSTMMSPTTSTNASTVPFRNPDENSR

B1: h-UMG1 (人源化UMG1单克隆抗体, H3-L4) (antibody, human IgG1, kappa, V domains shown)
VH: EVQLVESGGGLVQPGGSLRLSCVASGFTFSSFGMHWVRQAPGKGLEWVAYISSGSGNFYYVDTVKGRFTISRDNAKNSLYLQMNSLRAEDTAVYYCARSTYYHGSRGAMDYWGQGTLVTVSS
VL: QVVMTQSPAFLSVTPGEKVTITCSASSSVSSMYWYQLKPDQAPKLLIYDTSKMASGVPIRFSGSGSGTDFTFTVSSVEAEDAATYYCQQWSSYPPITFGGGTKVEIKR
notes: IgG1; also called h-UMG1单抗; 人源化单克隆抗CD43抗体
B2: 单克隆抗体UMG1 (murine anti-human CD43 antibody produced by the hybridoma deposited as ICLC PD n°16001) (antibody, V domains shown)
VH: DVQLVESGGGLVQPGGSRKLSCVASGFTFSSFGMHWVRQAPEKGLEWVAYISSGSGNFYYVDTVKGRFTISRDNPKNTLFLQMTSLRSEDTAMYYCARSTYYHGSRGAMDYWGQGTSVTVSS
VL: QIALTQSPAIMSASPGEKVTMTCSASSSVSSMYWYQLKPGSSPRLLIYDTSKMASGVPIRFSGSGSGTSFSLTVSRVEAEDAATYYCQQWSSYPPITFGAGSKLELK
notes: Murine antibody, kappa light chain; the negative control is a murine IgG1; also called m-UMG1; mUMG1
B3: 人源化UMG1抗体 H2-L3 (antibody, IgG1, V domains shown)
VH: B1 VH with A49S
VL: QVVMTQSPAFLSVTPGEKVTITCSASSSVSSMYWYQQKPDQAPKLLIYDTSKMASGVPSRFSGSGSGTDFTFTISSLEAEDAATYYCQQWSSYPPITFGGGTKVEIK
notes: one of the 16 combinations of H1-4 with L1-4
B4: 人源化UMG1抗体 H2-L1 (antibody, IgG1, V domains shown)
VH: B1 VH with A49S
VL: EIVLTQSPATLSLSPGERATLSCSASSSVSSMYWYQQKPGLAPRLLIYDTSKMASGIPDRFSGSGSGTDFTLTISRLEPEDFAVYYCQQWSSYPPITFGQGTRLEIK
notes: as for B3
B5: 人源化UMG1抗体 H4-L4 (antibody, IgG1, V domains shown)
VH: B1 VH with E1Q, L11V, A75S, S78T
VL: B3 VL with Q37L, S59I, I74V, L77V
notes: as for B3
B6: 人源化UMG1抗体 H4-L3 (antibody, IgG1, V domains shown)
VH: B1 VH with E1Q, L11V, A75S, S78T
VL: B3 VL
notes: as for B3
B7: 人源化UMG1抗体 H3-L3 (antibody, IgG1, V domains shown)
VH: B1 VH
VL: B3 VL
notes: as for B3
B8: 人源化UMG1抗体 H2-L4 (antibody, IgG1, V domains shown)
VH: B1 VH with A49S
VL: B3 VL with Q37L, S59I, I74V, L77V
notes: as for B3
B9: 人源化UMG1抗体 H1-L1 (antibody, IgG1, V domains shown)
VH: B1 VH with V23A, A49S
VL: B4 VL
notes: as for B3
B10: 人源化UMG1抗体 H1-L2 (antibody, IgG1, V domains shown)
VH: B1 VH with V23A, A49S
VL: B4 VL with V3A, Q37L, D59I, I74V, L77V
notes: as for B3
B11: 人源化UMG1抗体 H1-L3 (antibody, IgG1, V domains shown)
VH: B1 VH with V23A, A49S
VL: B3 VL
notes: as for B3
B12: 人源化UMG1抗体 H3-L2 (antibody, IgG1, V domains shown)
VH: B1 VH
VL: B4 VL with V3A, Q37L, D59I, I74V, L77V
notes: as for B3
B13: 人源化UMG1抗体 H4-L2 (antibody, IgG1, V domains shown)
VH: B1 VH with E1Q, L11V, A75S, S78T
VL: B4 VL with V3A, Q37L, D59I, I74V, L77V
notes: as for B3
B14: 人源化UMG1抗体 H3-L1 (antibody, IgG1, V domains shown)
VH: B1 VH
VL: B4 VL
notes: as for B3
B15: 人源化UMG1抗体 H2-L2 (antibody, IgG1, V domains shown)
VH: B1 VH with A49S
VL: B4 VL with V3A, Q37L, D59I, I74V, L77V
notes: as for B3
B16: 人源化UMG1抗体 H4-L1 (antibody, IgG1, V domains shown)
VH: B1 VH with E1Q, L11V, A75S, S78T
VL: B4 VL
notes: as for B3
B17: 人源化UMG1抗体 H1-L4 (antibody, IgG1, V domains shown)
VH: B1 VH with V23A, A49S
VL: B3 VL with Q37L, S59I, I74V, L77V
notes: as for B3
B18: ch-UMG1 (嵌合抗体, murine UMG1 variable regions on human IgG1 constant regions) (antibody, V domains shown)
VH: B2 VH
VL: QIALTQSPAIMSASPGEKVTMTCSASSSVSSMYWYQLKPGSSPRLLIYDTSKMASGVPIRFSGSGSGTSFSLTVSRVEAEDAATYYCQQWSSYPPITFGAGSKLELKR
notes: also called UMG1-CH; 嵌合单克隆抗体

The binders below were run against T1, CD43#6 (CD43 with aa 64 to 78 deleted), … (assay: FACS with h-UMG1-PE on GFP-positive transfected HEK293T cells).

Row | binding result | Binder
1 | no binding (tested: 1μg/ml) | B1

These binders were tested against T2, 人CD43 (human CD43, UMG1 epitope), … (assay: flow cytometry on PBMC of healthy donors, 1 μg/ml, FITC secondary antibody).

Row | binding result | Binder
2 | binds | B2

Molecular target: T3, 野生型肽 PPSTSINEGSPLWTS (aa 66-80 of human …)
Assay: substitution scan peptide microarray, antibody at 1, 10, 100 and 250 μg/ml

Row | binding result | Binder
3 | binds | B1

What follows are binders tested against T2, 人CD43 (human CD43, UMG1 epitope), … (assay: flow cytometry (MFI) on HPB-ALL and H9 cells, 1 μg/ml, FITC mouse anti-human IgG).

Row | binding result | Binder
4 | binds | B3
5 | binds | B4
6 | binds | B5
7 | binds | B6
8 | binds | B7
9 | binds | B8
10 | binds | B9
11 | binds | B10
12 | binds | B11
13 | binds | B12
14 | binds | B13
15 | binds | B14
16 | binds | B15
17 | binds | B16
18 | binds | B17

The binders below were run against T2, 人CD43 (human CD43, UMG1 epitope), … (assay: immunofluorescence on fixed THP-1-derived macrophages without or with PANC1 cells).

Row | binding result | Binder
19 | binds | B18

Each binder was assayed against T4, 重组人CD43细胞外部分 (aa 20-253), produced in … (assay: SPRi (PlexArray HT), antibody printed on the gold chip, recombinant CD43 aa 20-253 from E. coli as analyte, 25°C).

Row | Kd | Binder
20 | 99.4 nM | B1
